Reference: patent US20150030595A1 (ANTIBODY AND RECEPTOR THERAPEUTICS, published 2015)
Where two headings read alike, the source gives them in different places.

T1: ACVR2B-Fc fusion protein (human, UniProt Q13705 19-137)
T1 construct: also called water-soluble ACVR2B
T1 sequence: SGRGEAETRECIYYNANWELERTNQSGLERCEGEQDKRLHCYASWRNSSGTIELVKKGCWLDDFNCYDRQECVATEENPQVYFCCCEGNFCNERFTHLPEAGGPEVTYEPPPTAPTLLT

T2: C-terminally active myostatin (R&D systems) (UniProt O14793 267-375, limits assumed)
T2 construct: mature
T2 sequence (looked up): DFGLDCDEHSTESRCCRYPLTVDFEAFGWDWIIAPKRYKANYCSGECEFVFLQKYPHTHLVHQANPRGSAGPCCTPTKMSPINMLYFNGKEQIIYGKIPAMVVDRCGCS


What was measured:
[1] = target: T3, anti-myc antibody coated on the ELISA plate; experiment: phage ELISA, anti-myc coated
T3 construct: also called a-MYC; a-myc
Protocol: (§1) Colonies obtained from a group of the polyclonal phage antibodies having high binding capacity were cultured at a temperature of 37° C. for 16 hours in a 96-deep well plate (Bioneer 90030) containing 1 ml of a medium supplemented with 2×YTCM, 2% glucose, and 5 mM MgCl₂. 100 to 200 μl of the cultured cells were taken, and diluted with 1 ml of a medium supplemented with 2×YTCM, 2% glucose, and 5 mM MgCl₂ so that the OD₆₀₀ value of the cultured cells reached 1. Thereafter, the cells were cultured at a temperature of 37° C. for 2 to 3 hours in a 96-deep well plate so that the OD₆₀₀ value reached 0.5 to 0.7. Then, the cells were infected with an […] so that an MOI value became 1:20, and then cultured at a temperature of 30° C. for 16 hours in a medium supplemented with 2×YTCMK, 5 mM MgCl₂, and 1 mM IPTG. The cultured cells were centrifuged (at 4,500 rpm and 4° C. for 15 minutes) to collect a supernatant. Then, the supernatant was thoroughly dissolved in 4% PEG 6000 and 3% NaCl, and reacted on ice for an hour. The resulting reaction mixture was centrifuged again (at 8,000 rpm and 4° C. for 20 minutes), and the pellet was dissolved in PBS, and then centrifuged (at 12,000 rpm and 4° C. for 10 minutes) to obtain a supernatant, which was transferred to a new tube and stored at 4° C. Subsequently, a 96-well immunoplate was coated with antigens at a concentration of 100 ng per well by treating the immunoplate with the antigens at 4° C. for 16 hours, and each well was then blocked with skim milk (4%) dissolved in PBS. Each well was washed with 0.2 ml of PBS-Tween 20 (0.05%), and 100 μl of the monoclonal scFv-phages obtained by the above-described method were added to each well, and then reacted at room temperature for 2 hours. Each well was again washed four times with […] of PBS-Tween 20 (0.05%), and a secondary antibody, anti-M13-HRP, was diluted at 1:2000, added to each well, and then reacted at room temperature for an hour. Each well was washed with […] of PBS-Tween 20, colorimetrically developed, and then measured for optical density at 490 nm.

Fc [2] = target: T4, Fc; experiment: phage ELISA, Fc coated
T4 construct: domain: Fc
Protocol: as §1

ACVR2B-Fc fusion protein [3] = target: T1, ACVR2B-Fc fusion protein; experiment: phage ELISA, ACVR2B coated
ACVR2B-Fc fusion protein [4] = target: T1, ACVR2B-Fc fusion protein; experiment: phage ELISA, ACVR2B coated; remark: listed apart in the source
Protocol: as §1

ACVR2B-Fc fusion protein [5] = target: T1, ACVR2B-Fc fusion protein; experiment: phage ELISA; OD on ACVR2B divided by OD on a-myc
[6] = target: T3, anti-myc antibody coated on the ELISA …; experiment: phage ELISA, anti-myc coated; remark: listed apart in the source
Fc [7] = target: T4, Fc; experiment: phage ELISA, Fc coated; remark: listed apart in the source
ACVR2B-Fc fusion protein [8] = target: T1, ACVR2B-Fc fusion protein; experiment: SPR (ProteOn XPR36), ACVR2B-Fc coated on the chip, Fc channel as reference
Protocol: This experiment was performed using a ProteOn XPR36 instrument (Bio-Rad). First, a sensor chip (GLC) was activated by reacting 0.1 M EDC and 0.025 M sulfo-NHS (Bio-Rad) for 60 seconds. […] The coating procedure was completed by allowing 1 M ethanolamine-HCl) (pH 8.5) to flow at the coated chip for 200 seconds. To test the bound proteins, the chip was rotated at an angle of 90°, and stabilized by allowing DPBST (PBS with 0.005% Tween 20) to flow on the chip for 30 minutes.

[9] = target: T2, C-terminally active myostatin (R&D …); experiment: ELISA, coating 1 ug/ml myostatin, binding 10 nM, anti-human Fc HRP

Binder	OD490 [1] [OD]	OD490 (Fc [2]) [OD]	OD490 (ACVR2B-Fc fusion protein [3]) [OD]	OD490 (ACVR2B-Fc fusion protein [4]) [OD]	Ratio (ACVR2B-Fc fusion protein [5])	OD490 [6] [OD]	OD490 (Fc [7]) [OD]	binding result (ACVR2B-Fc fusion protein [8])	binding result [9]
ACVR2B A09 (monoclonal scFv-phage) (scFv, V domains shown, also called A9) VH: VQLVESGGGLVQPGRSLRLSCAASGFTFDSYWMSWVRQAPGKGLEWVANIKYDGSEKHYMDSVKGRFTISRDNAKNSVYLQMNSLRAEDTAVYYCAKGAWLDYWGQGTQVTVSS VL: IQMTQSPSAMSASVGDRVTITCRASQGISNYLAWFQQKPGKVPKRLIYAASSLQSGVPSRFSGSGSGTGFTLTITSLQPEDFATYYCLQHKSYPYTFGQGTKLEIK	1.17	0.0482	2.18	2.18	1.86	1.17	0.048	–	–
ACVR2B F08 (monoclonal scFv-phage) (scFv, V domains shown, also called F8) VH: VQLVESGGGLVQPGGSLRLSCAASGFTFSDHYMDWVRQAPGKGLEWVGRTRNKANSYTTEYAASVKGRFTISRDDSKNSLYLQMNSLRAEDTAVYYCTKGAWLDYWGQGTLVTVSS VL: IQMTQSPSAMSASVGDRVTITCRASQGISNYLAWFQQKPGKVPKRLIYGASSLQGGVPSRFSGSGSGTEFTLTITSLQPEDFATYFCLQHKSYPLTFGPGTKVEIK	0.783	0.117	2.94	2.94	3.75	0.783	0.116	–	–
ACVR2B B12 (monoclonal scFv-phage) (scFv, V domains shown) VH: VQLVQSGAEVKKPGESLKISCKTSGYTFTHYWIGWVRQMPGKGLEWMGRINPTDSYADYSPSFQGHVIMSVDKSVSTAYLHWNSLKASDTAMYYCARGTALGVWGQGTTVTVSS VL: IQMTQSPSAMSASVGDRVTITCRASQGISNYLAWFQQKPGKVPKRLIYAASSLQSGVPSRFSGSGSGTEFTLTITSLQPEDFATYYCLQHKSYPYTFGQGTKLEIK	1.46	0.0447	2.75	2.76	1.89	1.46	0.044	–	–
ACVR2B D07 (monoclonal scFv-phage) (scFv, V domains shown, also called D7) VH: QVQLVQSGAEVKKPGASVKVSCKASGYTFTSYYMHWVRQAPGQGLEWMGIINPSGGSTSYAQKFQGRVTMTRDTSTSTVYMELSSLRSEDTAVYYCAKDQSRGWYSNFDSWGQGTLVTVSS VL: DIQMTQSPSTLSASVGDRVTITCRASQTVSNWLAWYQLKPGKAPKLLIYKASSLESGVPSRFSGTGSETEFTLTISSLQPDDFATYYCQQYHSYPITFGQGTRLEIK	0.241	0.0428	2.66	2.66	11	0.24	0.042	–	–
ACVR2B A06 (monoclonal scFv-phage) (scFv, V domains shown, also called A6) VH: VQLVQSGGGLVQPGRSLRLSCTASGFTFGDYAMSWVRQAPGKGLEWVGFIRSKRYDGTAEYAASVKGRFTISRDDSKNSLYLQMNSLRAEDTAVYYCARGHYAMDVWGQGTTVTVSS VL: DIQMTQSPSSLSASVGDRVTITCRASRSISNYLNWYQQKPGKAPKLLIYAASSLQSGVPSRFSGSGSGTDFTLTISSLQPEDFATYYCQQSYDTPFTFGLGNQLEIK	0.704	0.046	2.96	2.96	4.21	0.703	0.046	–	–
ACVR2B D11 (monoclonal scFv-phage) (scFv, V domains shown) VH: MQLVQSGGGLVQPGRSLGLSCTASGFTFGDYAMSWVRQAPGKGLEWVGFIRSKAYGGTTEYAASVKGRLTISRDDSKSIAYLQMNSLRAEDTAVYYCARGHYGMDVWGQGTTVTVSS VL: DIQMTQSPSSLSASVGDRVTITCRASQNISNFLNWYQQKPGKAPKLLIYSASRLQRGVPSRFSGSGSGTDFTLTISSLQPEDFATYYCQQSYSTPYTFGQGTKLEIK	0.834	0.0429	3.05	3.05	3.66	0.833	0.042	–	–
EGF3-6-Fc (DLK1 deletion mutant without the 1st and 2nd EGF-like repeat domains) (Fc fusion, also called 3M-Fc; not shown: human antibody Fc region of the pYK602-Fc vector and any SfiI-junction residues) DVRACSSAPCANNGTCVSLDDGLYECSCAPGYSGKDCQKKDGPCVINGSPCQHGGTCVDDEGRASHASCLCPPGFSGNFCEIVANSCTPNPCENDGVCTDIGGDFRCRCPAGFIDKTCSRPVTNCASSPCQNGGTCLQHTQVSYECLCKPEFTGLTCVKKRALSPQQVTRLPSGYGLAYRLTPGVHELPVQQPEHRILKVSMKELNKKTPLLTEG	–	–	–	–	–	–	–	binds	binds
EGF6-Fc (Fc fusion, also called 6M-Fc; not shown: human antibody Fc region of the pYK602-Fc vector and any SfiI-junction residues) PVTNCASSPCQNGGTCLQHTQVSYECLCKPEFTGLTCVKKRALSPQQVTRLPSGYGLAYRLTPGVHELPVQQPEHRILKVSMKELNKKTPLLTEG	–	–	–	–	–	–	–	no binding	binds
ACVR2B B08 (monoclonal scFv-phage) (scFv, V domains shown, also called B8) VH: VQLVQSGGGLVHPGQSLRLSCTGSGFPFGDYSMTWVRQAPGKGLEWVGLVRSKAYGGTTEYAASVKGRFIMSRDDSRSIAYLQMNSLRAEDTAVYYCARGHYGMDVWGQGTTVTVSS VL: DIQMTQSPSSVSASVGDRVTITCRASQGISNWLAWYQQKPGKAPKLLIYAASSLQSGVPSRFSGSGSGTDFTLTISSLQPEDFATYYCQQAKSYPYTFGQGTKVEIK	1.16	0.0455	2.64	2.64	2.28	1.16	0.045	–	–
ACVR2B C08 (monoclonal scFv-phage) (scFv, V domains shown, also called C8) VH: VQLVESGGGLVQPGGSLRLSCSASGFTFSSYAMHWVRQAPGKGLEYVSAISSNGGSTYYADSVKGRFTISRDNSKNTLYLQMNSLRAEDTAVYYCAKTYGGYGNAFDIWGQGTMITVSS VL: DIQMTQSPSSVSASVGDRVTITCRASQGISRWLAWYQQKPGKAPKLLIYAASNLQSGVPSRFSGSGSGTDFTLTINSLQPEDFATYFCQQGKSFPYTFGPGTKVEIK	1.17	0.0721	2.87	2.86	2.45	1.17	0.072	–	–
ACVR2B C07 (monoclonal scFv-phage) (scFv, V domains shown, also called C7) VH: QMQLVQSGGGLVKPGGSLRLSCAPSGFTFRDYHMSWIRQAPGKGLEWISNISNSGTNIYYADSVKGRFTISRDNAKNSLYLQMNSLRAEDTAVYYCARGHYGMDIWGQGTTITVSS VL: DIQMTQSPSSLSASVGDRVTITCRASQGIANYLAWYQQKPGKAPKLLIYAASTLQSGVPSRFSGSGSGTDFTLTISSLQPEDFATYYCQQVKSYPLSFGGGTKVEIK	0.441	0.0435	2.98	2.98	6.75	0.44	0.043	–	–
EGF4-6-Fc (Fc fusion, also called 4M-Fc; not shown: human antibody Fc region of the pYK602-Fc vector and any SfiI-junction residues) KDGPCVINGSPCQHGGTCVDDEGRASHASCLCPPGFSGNFCEIVANSCTPNPCENDGVCTDIGGDFRCRCPAGFIDKTCSRPVTNCASSPCQNGGTCLQHTQVSYECLCKPEFTGLTCVKKRALSPQQVTRLPSGYGLAYRLTPGVHELPVQQPEHRILKVSMKELNKKTPLLTEG	–	–	–	–	–	–	–	binds	binds
ACVR2B B11 (monoclonal scFv-phage) (scFv, V domains shown) VH: VQLVESGGGLVQPGRSLRLSCAASGFTFDNHAMHWVRRAPGKGLEWVSGISWNGGTTAYADSVKGRFSIFRDNAEKSLYLQMNSLRAEDTAVYYCARGSSSGRYYFDYWGQGTLVTVSS VL: DIQMTQSPSSVSASVGDRVTITCRASQGISTYLNWYQHQSGKAPKLLIYGAFRLQSGVPSRFSGSGSGTDFTLTISNLQPEDFATYYCQQAKNFPLTFGGGTKVDIK	0.657	0.0477	2.99	2.99	4.55	0.657	0.047	–	–
